This is an account of results in US20250352611A1, “METHODS FOR TREATING CATARACTS USING POLYPEPTIDES” (REJUKON BIOPHARM INC., priority 2022, published 2025).

One data set deals with T1, G3BP1-GFP protein (Mus musculus, UniProt P97855).
T1 construct: Genes of full-length mouse G3BP1, G3BP1-eGFP; thrombin protease cleavage site (C); His6 (C); made in house; host or cells: Escherichia coli rosetta (DE3)
As to the kind of experiment: G3BP1-GFP phase separated droplet dissolution, confocal laser microscope. The class given is biochemical. The following applies: 60 uM polypeptide, 20 uM G3BP1-GFP. The protocol:
The prokaryotic expressed and purified G3BP1-GFP protein (pH7.5, 20 uM G3BP1-GFP) was induced to form phase separated droplets in vitro. Polypeptides Champ-E (RJK001), Champ-D (RJK002), Champ-K (RJK012) and Champ-Q (RJK005, […], SEQ ID NO: 34) (each of 60 uM) were added dropwise to the G3BP1-GFP droplets. The observation was performed continuously through a confocal laser microscope.
For G3BP1(FL)-eGFP, purified G3BP1(FL)-eGFP, Champ-E and its variants were changed were diluted to droplet buffer (50 mM Tris, pH 7.5, 150 mM NaCl) using SpinDesalt Column (smart). G3BP1(FL)-eGFP proteins were diluted to indicated concentrations and supplemented with PEG8000 with 1.25% final concentration for 10 min to induce phase separation as reported.

A further data set addresses T2, G3BP1 (Mus musculus, UniProt P97855).
T2 construct: Genes of full-length mouse G3BP1, G3BP1-eGFP; thrombin protease cleavage site (C); His6 (C); made in house; host or cells: Escherichia coli rosetta (DE3)
As to the kind of experiment: G3BP1 turbidity assay (OD395 nm). The data set is classed as biochemical. The following applies: G3BP1 30 μM, ratio range 0.75 to 25, room temperature, 10 minutes. The protocol:
The turbidity of G3BP1 (30 μM) in the presence of various concentrations of Champ-E, Champ-D, Champ-K, or Champ-Q was measured at a wavelength of 395 nm. Briefly, G3BP1 protein ([…]) and polypeptides Champ-E (RJK001), Champ-D (RJK002), Champ-K (RJK012) and Champ-Q (RJK005) were mixed well in a ratio range of 0.75 to 25 at room temperature for 10 minutes prior to turbidity assays. Absorbance at 395 nm (OD395 nm) was monitored at room temperature using Nanodrop ONE (Thermo Fisher Scientific, Inc.). […] The turbidity level reflects the degree of phase separation.
Briefly, the G3BP1 protein and the above-mentioned peptides were mixed at room temperature for 10 minutes prior to turbidity assays. 30 μM G3BP1 and peptide were mixed well in a ratio range of 0.75 to 25 before test. Absorbance at 395 nm (OD395 nm) was monitored at room temperature using Nanodrop ONE (Thermo Fisher Scientific, Inc.).
We followed the Turbidity Assays experiment as previously reported. Briefly, G3BP1 turbidity analysis were at room temperature and γD-crystallin protein was at 4° C. Proteins and Champ-E(RJK001), Champ-K, Champ-D or mutants are mixed at room temperature for 10 minutes prior to turbidity assays. 20 μM G3BP1 and 50 mg/ml(2.5 mM) γD-crystallin and peptide were mixed well in a ratio range of 0.75 to 25 before test. Absorbance at 395 nm (OD395 nm) was monitored at room temperature using Nanodrop ONE (Thermo Fisher Scientific, Inc.).

Data set [1] in a line: Half-life of cell-penetrating peptide fused Champ peptides in eukaryotic cells (western blot). The data set is classed as in vitro ADME. The following applies: SH-SY5Y cells harvested at 1 h, 4 h, 8 h and 24 h, western blot. The protocol:
(§1) As described in Example 1, the polypeptide RJK001 was fused at its C-terminal with a cell-penetrating peptide ([…]) and the polypeptide RJK012 was fused at its N-terminal with a cell-penetrating peptide ([…]).
(§2) C-terminal fusion cell-penetrating peptide RJK001 and N-terminal fusion cell-penetrating peptide RJK012 were purified in vitro and added into SH-SY5Y cell. Cells were harvested at 1 h, 4 h, 8 h and 24 h respectively and were washed with PBS. Total proteins were extracted from SH-SY5Y cells with lysis buffer. Equal amounts of protein (20 μg) were separated by SDS-PAGE (15% separating gel). For data analysis, ImageJ was used to detect the Integrated density of each protein bands, and the ratio and half-life of Champ peptides were calculated by comparing with the positive control. […]
(§3) Cells were harvested at 1 h, 4 h, 8 h and 24 h respectively and were washed with PBS. […] For data analysis, quantification of the western blot bands was achieved using the software GELPRO (Media Cybernetics). The ratio and half-life of Champ peptides were calculated by comparing with the positive control. The presented quantitative data were calculated from three independent experiments.
In general terms: A western blot detects proteins with antibodies after separation by electrophoresis.

Data set [2] deals with γD (W42D) aggregates in the SH-SY5Y cell. As to the kind of experiment: γD (W42D) aggregates in SH-SY5Y cells, live imaging and CellProfiler analysis. The data set is classed as cell-based. As to conditions: added every 4 hours for a total of 24 hours. The protocol: Cells were grown in a 12-well plate (1×10^5 cells per well) for 24 hours and transfected with γD (W42D) plasmid using EZtrans transfection reagent. 24 hours after transfection, Champ peptides RJK001 (final concentration of 20 uM) and RJK0012 (final concentration of 10 uM and 20 uM) were added into SH-SY5Y cell culture medium every 4 hours for a total of 24 hours. The effect of RJK001 and RJK012 polypeptide on the γD (W42D) aggregates in the SH-SY5Y cell mode were analyzed using a custom CellProfiler software. Briefly, cell bodies were then segmented and identified by the GFP fluorescence channel images and tracing outward to the limits of the cytoplasmic (using a diameter cutoff of 100-300 pixels). The cell bodies were used as masks to eliminate imaging artifacts outside of cell boundaries, such as background fluorescence or dead cells. After masking, punctate structures were enhanced by image processing for speckle-like features that were 10 pixels in diameter for SH-SY5Y cells and these punctate structures were then annotated as features such as γD (W42D) puncta. Finally, the total image area which was enclosed in each of the identified features (number of cell and punctate) was calculated and output to spreadsheets. At least 200 cells per sample were analyzed. […]
Granules screen and assay images were segmented and image features quantified using a custom CellProfiler and ImageJ software. […] The effect of RJK001 and RJK012 polypeptide on the γD ([…]) aggregates in the SH-SY5Y cell mode were analyzed using a custom CellProfiler software. Briefly, cell bodies were then segmented and identified by the GFP fluorescence channel images and tracing outward to the limits of the cytoplasmic (using a diameter cutoff of 100-300 pixels). The cell bodies were used as masks to eliminate imaging artifacts outside of cell boundaries, such as background fluorescence or dead cells. […] Finally, the total image area which was enclosed in each of the identified features (number of cell and punctate) was calculated and output to spreadsheets. At least 200 cells per sample were analyzed.

The subject of a further data set is SH-SY5Y cells. Nature of the data set: Half-life of cell-penetrating peptide fused Champ peptides in eukaryotic cells (western blot). The data set is classed as in vitro ADME. As to the method: as §1, §2, §3
Data set [3] deals with T3, wild-type human full-length γD-crystallin (human, UniProt P07320 1-174).
T3 construct: It was uniformly 15N-labelled for the HSQC experiment and unlabelled for the turbidity assay; also called full-length wildtype γD-crystallin protein; 15N γD-crystallin
T3 sequence (looked up): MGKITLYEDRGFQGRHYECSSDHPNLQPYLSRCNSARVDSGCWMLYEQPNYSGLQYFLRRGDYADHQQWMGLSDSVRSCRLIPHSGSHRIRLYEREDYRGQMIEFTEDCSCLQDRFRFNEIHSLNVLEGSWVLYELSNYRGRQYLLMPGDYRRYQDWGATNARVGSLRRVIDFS
Nature of the data set: 1H-15N HSQC NMR chemical shift differences, 15N γD-crystallin with unlabeled RJK001 at 1:2.
Description: Using final 300 uM human γD-crystallin at 25° C., the two-dimensional [¹H-¹⁵N] heteronuclear single quantum coherence (HSQC) spectra were recorded to determine the domain interactions at the residue-specific level.

Broadly, the half-life is how long it takes for the measured level to halve.

Where no end group is shown, it is not given here.

Regarding “TDPQDDSDDDVDDPDDRQQTPDVVPDDSGTFYDQTVSNDLD [RJK002, Asp variant of Champ-E]”, the “dissolution of G3BP1-GFP phase separated droplets” value (“dissolution” below) with G3BP1-GFP protein (pH7.5, 40s after addition) was “partially dissolved the phase separated droplets”; in the data set with G3BP1-GFP protein (pH7.5, 120s after addition), “dissolved more phase separated droplets”. The “turbidity of G3BP1 (OD395 nm)” value with G3BP1 is on record as “reduced the turbidity in a concentration dependent manner”.
In data set [1], “TEPQEESEEEVEEPEERQQTPEVVPDDSGTFYDQTVSNDLEGGRKKRRQRRRHHHHHHHH” gave a half-life of around 8 h.
As for “TKPQKKSKKKVKKPKKRQQTPKVVPDDSGTFYDQTVSNDLK [RJK012, Lys variant of Champ-E]”, the “dissolution” value with G3BP1-GFP protein (pH7.5, 40s after addition) is listed as “significantly dissolved the phase separated droplets”. In addition, the “turbidity of G3BP1 (OD395 nm)” value with G3BP1 is on record as “reduced the turbidity in a concentration dependent manner”. The “number of γD (W42D) aggregates in the SH-SY5Y cell” value is “reduced the number of γD (W42D) aggregates in the SH-SY5Y cell in a time-dependent manner until 6 hours” in data set [2] (10 uM) and “reduced the number of γD (W42D) aggregates in the SH-SY5Y cell in a time-dependent manner until 12 hours” in data set [2] (20 uM).
Turning to “TQPQQQSQQQVQQPQQRQQTPQVVPDDSGTFYDQTVSNDLQ [RJK005]”, the “dissolution” value in the data set with G3BP1-GFP protein (pH7.5, 120s after addition) was “did not dissolve the phase separated droplets”. For the same molecule, in the data set with G3BP1, the “turbidity of G3BP1 (OD395 nm)” value is given as “much less effect on the reduction of the turbidity”.

B1: RQIKIWFQNRRMKWKKKTKPQKKSKKKVKKPKKRQQTPKVVPDDSGTFYDQTVSNDLKSGRPVLHHHHHH (peptide)
chain: RQIKIWFQNRRMKWKKKTKPQKKSKKKVKKPKKRQQTPKVVPDDSGTFYDQTVSNDLKSGRPVLHHHHHH
For B1, the “turbidity of G3BP1 (OD395 nm)” value with G3BP1 was “reduce the turbidity in a concentration dependent manner”. In the data set on SH-SY5Y cells, the “half-life in eukaryotic cells” value is “about 8 hours”.

B2: Champ-E (RJK001) (peptide)
peptide: TEPQEESEEEVEEPEERQQTPEVVPDDSGTFYDQTVSNDLE
notes: The peptide was unlabeled in the NMR experiment; also called short peptide RJK001
As for B2, in data set [3], the binding result is recorded as “binds”.
